Measurements published in patent US20160297883A1, “G-PROTEIN COUPLED RECEPTOR AGONISTS AND METHODS” (Innovative Targeting Solutions, Inc., priority 2013, published 2016).

Biological target: T1, GLP1R (Homo sapiens, UniProt P43220, A316G/L260F)
T1 construct: host or cells: HuTARG cells (engineered HEK293), subclone L696 / L696.19
Assay: cAMP-responsive CD19 surface reporter assay in HuTARG-L696 GLP1R reporter cell line (FACS)
Assay type: cell-based
Description: HuTARG™ cells, which are HEK293 cells engineered to be capable of de novo antibody generation, were used to generate the reporter cell line. HuTARG™ cells have been stably transfected with expression cassettes for RAG1 and RAG-2 and Tdt. RAG-1 expression is inducible as the gene has been placed downstream of a Tet inducible promoter. HuTARG™ cells have also been stably transfected with a plasmid containing a LoxP site for subsequent insertion of V(D)J substrates.
HuTARG™ cells were modified to express the GLP1 receptor as well as express a reporter gene that was activated by cAMP. […]
Depleted cells were subsequently expanded and depleted an additional time using the same protocol except using a Miltenyi LD magnetic column. […] Single cell clones confirmed to have minimal CD19 expression in the absence of ligand were evaluated for induction of CD19 in the presence of 10 nM Exendin and the L696 subclone was selected. […]
The peptide-grafted antibody, ITS007-V107, was subsequently cloned and expressed as a single-domain VH-IgG antibody without CH1 or a light chain and it was confirmed that the peptide-grafted heavy chain was functional in this format as well (FIG. 12). […]
ITS007-V125 was cloned into a secretion vector, expressed and purified. […] The next day, binding and the percentage of cells expressing the surface marker were determined by FACS.

T1 sequence (P43220 24-463 L260F/A316G): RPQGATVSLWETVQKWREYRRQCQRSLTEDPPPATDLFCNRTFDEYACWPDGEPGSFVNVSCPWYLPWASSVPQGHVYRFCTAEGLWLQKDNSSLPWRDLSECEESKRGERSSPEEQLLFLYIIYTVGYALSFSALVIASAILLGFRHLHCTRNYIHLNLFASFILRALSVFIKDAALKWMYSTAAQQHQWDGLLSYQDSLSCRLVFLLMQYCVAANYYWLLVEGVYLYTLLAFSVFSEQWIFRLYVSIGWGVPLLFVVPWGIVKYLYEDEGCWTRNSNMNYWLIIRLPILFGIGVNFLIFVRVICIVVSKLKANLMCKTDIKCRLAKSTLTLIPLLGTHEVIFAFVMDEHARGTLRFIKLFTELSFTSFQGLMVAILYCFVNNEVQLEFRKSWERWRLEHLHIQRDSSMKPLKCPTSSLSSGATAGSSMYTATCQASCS

Question: For Exendin-4 [reference compound], which “induction of CD19 expression” value (10 nM, 24 hours, L696 cell line) is on record?
Answer: Its value is “CD19 expression is specifically induced”.

Question: What about the “percentage of cells showing CD19 expression” value (50 nM, 48 hours incubation with reporter line) of the same substance?
Answer: Its value is “approximately 8%”.
